Data from IntAct's records for PubMed 22500027.

B1: BBSome complex member BBS1 (Homo sapiens), Q8NFJ9 (parent)
chain: MAAASSSDSDACGAESNEANSKWLDAHYDPMANIHTFSACLALADLHGDGEYKLVVGDLGPGGQQPRLKVLKGPLVMTESPLPALPAAAATFLMEQHEPRTPALALASGPCVYVYKNLRPYFKFSLPQLPPNPLEQDLWNQAKEDRIDPLTLKEMLESIRETAEEPLSIQSLRFLQLELSEMEAFVNQHKSNSIKRQTVITTMTTLKKNLADEDAVSCLVLGTENKELLVLDPEAFTILAKMSLPSVPVFLEVSGQFDVEFRLAAACRNGNIYILRRDSKHPKYCIELSAQPVGLIRVHKVLVVGSTQDSLHGFTHKGKKLWTVQMPAAILTMNLLEQHSRGLQAVMAGLANGEVRIYRDKALLNVIHTPDAVTSLCFGRYGREDNTLIMTTRGGGLIIKILKRTAVFVEGGSEVGPPPAQAMKLNVPRKTRLYVDQTLREREAGTAMHRAFQTDLYLLRLRAARAYLQALESSLSPLSTTAREPLKLHAVVQGLGPTFKLTLHLQNTSTTRPVLGLLVCFLYNEALYSLPRAFFKVPLLVPGLNYPLETFVESLSNKGISDIIKVLVLREGQSAPLLSAHVNMPGSEGLAAA
partner: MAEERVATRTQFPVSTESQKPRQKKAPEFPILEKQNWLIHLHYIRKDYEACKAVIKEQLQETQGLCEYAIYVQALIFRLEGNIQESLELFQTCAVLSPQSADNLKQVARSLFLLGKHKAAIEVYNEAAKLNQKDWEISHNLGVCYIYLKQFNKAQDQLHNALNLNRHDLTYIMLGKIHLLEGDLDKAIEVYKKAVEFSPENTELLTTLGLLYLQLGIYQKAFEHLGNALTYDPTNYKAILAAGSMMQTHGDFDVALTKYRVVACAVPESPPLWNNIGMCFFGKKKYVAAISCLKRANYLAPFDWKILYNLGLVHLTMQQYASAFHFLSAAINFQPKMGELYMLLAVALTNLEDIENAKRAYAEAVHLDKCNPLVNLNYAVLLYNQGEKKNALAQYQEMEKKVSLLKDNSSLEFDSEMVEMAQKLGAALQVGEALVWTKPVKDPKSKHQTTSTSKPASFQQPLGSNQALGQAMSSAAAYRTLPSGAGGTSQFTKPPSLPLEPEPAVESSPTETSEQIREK
B2: BBSome complex member BBS4 (Homo sapiens), Q96RK4 (parent)
chain: B1 partner

Variants of: B1
Conditions: with bbs4_human BBS4, Q96RK4

Row | Variant | effect of a mutation on the interaction
1 | M390R | decreasing interaction

Variants of: B2
Conditions: with pcm1_human PCM1, Q15154
Chain of pcm1_human PCM1, Q15154 (Q15154 whole entry): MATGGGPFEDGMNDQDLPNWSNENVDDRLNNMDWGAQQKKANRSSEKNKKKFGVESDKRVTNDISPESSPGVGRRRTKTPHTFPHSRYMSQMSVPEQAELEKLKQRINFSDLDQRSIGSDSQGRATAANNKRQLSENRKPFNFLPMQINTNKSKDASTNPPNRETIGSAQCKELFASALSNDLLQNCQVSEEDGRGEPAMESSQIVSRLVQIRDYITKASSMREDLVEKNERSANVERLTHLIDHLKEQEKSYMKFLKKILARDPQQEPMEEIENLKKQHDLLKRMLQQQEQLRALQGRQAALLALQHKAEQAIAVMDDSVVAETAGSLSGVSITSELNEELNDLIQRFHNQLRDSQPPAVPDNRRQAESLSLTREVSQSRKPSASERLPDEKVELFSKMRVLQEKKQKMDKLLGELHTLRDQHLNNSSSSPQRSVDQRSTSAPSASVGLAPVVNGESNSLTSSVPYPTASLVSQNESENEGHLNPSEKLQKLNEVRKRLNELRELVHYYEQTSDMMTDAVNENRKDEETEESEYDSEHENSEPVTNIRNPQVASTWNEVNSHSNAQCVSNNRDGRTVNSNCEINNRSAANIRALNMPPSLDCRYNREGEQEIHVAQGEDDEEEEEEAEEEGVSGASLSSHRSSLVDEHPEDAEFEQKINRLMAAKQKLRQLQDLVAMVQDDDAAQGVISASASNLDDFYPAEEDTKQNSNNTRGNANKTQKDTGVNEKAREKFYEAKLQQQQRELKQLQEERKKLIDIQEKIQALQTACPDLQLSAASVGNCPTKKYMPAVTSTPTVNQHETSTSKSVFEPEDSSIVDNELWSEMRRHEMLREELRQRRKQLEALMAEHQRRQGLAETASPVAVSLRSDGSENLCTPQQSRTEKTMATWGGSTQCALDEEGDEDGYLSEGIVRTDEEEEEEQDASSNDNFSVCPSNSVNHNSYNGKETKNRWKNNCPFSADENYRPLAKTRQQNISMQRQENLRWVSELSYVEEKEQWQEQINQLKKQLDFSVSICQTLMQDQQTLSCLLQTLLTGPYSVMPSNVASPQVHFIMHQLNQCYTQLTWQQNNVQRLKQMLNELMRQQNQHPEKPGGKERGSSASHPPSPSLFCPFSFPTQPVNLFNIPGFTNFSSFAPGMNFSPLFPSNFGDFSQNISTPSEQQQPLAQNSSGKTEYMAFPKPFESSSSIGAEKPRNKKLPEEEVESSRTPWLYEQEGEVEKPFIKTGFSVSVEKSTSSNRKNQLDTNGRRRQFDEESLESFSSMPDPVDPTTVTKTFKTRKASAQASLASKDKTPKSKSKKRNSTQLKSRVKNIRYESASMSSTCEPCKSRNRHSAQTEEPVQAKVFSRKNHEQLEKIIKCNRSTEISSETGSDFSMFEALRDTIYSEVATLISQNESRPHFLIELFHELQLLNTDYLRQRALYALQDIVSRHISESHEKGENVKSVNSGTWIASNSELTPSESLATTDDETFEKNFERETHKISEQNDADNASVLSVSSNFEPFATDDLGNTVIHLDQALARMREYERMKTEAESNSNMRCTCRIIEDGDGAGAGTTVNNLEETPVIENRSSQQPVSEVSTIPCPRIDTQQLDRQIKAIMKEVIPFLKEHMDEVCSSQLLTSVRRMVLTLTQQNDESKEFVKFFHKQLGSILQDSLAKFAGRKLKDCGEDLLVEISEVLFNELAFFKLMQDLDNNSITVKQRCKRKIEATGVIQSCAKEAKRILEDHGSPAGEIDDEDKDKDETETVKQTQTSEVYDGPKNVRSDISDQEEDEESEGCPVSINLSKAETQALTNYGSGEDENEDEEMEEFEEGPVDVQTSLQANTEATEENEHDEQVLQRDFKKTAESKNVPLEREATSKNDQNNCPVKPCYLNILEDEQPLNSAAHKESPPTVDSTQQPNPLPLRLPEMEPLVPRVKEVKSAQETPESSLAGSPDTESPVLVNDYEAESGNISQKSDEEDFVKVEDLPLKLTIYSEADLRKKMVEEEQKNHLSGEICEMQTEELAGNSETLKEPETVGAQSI

Row | Variant | effect of a mutation on the interaction
2 | G277E | disrupting interaction
3 | R295P | disrupting interaction
